The record followed here is patent publication US20020045591A1, “Methods and therapeutic compositions for treating cancer” (priority 1998, published 2002).

The target in one test is T1, β-catenin (Cricetulus griseus, UniProt G3H996).
T1 construct: resulting from the stabilization of the endogenous β-catenin by the transfected cadherin derivatives; endogenous in cells; host or cells: CHO cells, stably or transiently transfected with cadherin derivatives only
T1 sequence (G3H996 1-781): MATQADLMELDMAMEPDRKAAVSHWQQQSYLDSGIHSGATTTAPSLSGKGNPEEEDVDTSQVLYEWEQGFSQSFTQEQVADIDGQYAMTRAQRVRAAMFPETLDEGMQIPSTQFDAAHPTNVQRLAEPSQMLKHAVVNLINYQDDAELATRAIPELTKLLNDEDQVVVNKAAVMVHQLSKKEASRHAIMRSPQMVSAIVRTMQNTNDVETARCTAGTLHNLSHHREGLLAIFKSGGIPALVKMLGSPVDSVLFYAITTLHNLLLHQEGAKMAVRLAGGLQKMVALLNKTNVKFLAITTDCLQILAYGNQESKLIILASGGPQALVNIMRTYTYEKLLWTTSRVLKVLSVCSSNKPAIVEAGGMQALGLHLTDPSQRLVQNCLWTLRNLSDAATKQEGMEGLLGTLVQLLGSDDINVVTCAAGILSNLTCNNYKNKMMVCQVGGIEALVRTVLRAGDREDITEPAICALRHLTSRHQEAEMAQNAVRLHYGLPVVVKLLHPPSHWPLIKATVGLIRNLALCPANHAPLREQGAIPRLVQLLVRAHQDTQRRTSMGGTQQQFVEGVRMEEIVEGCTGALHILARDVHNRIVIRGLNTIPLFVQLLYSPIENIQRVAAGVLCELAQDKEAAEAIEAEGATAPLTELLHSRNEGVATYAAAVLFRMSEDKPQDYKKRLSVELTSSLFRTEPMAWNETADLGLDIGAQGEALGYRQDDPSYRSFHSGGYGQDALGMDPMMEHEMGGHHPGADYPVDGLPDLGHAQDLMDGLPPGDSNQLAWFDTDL
The test is described as follows: β-catenin level in CHO cells by Western blot. As to conditions: stably transfected CHO cells, FIG. 2A. It counts as cell-based. On the procedure:
Cell culture and transfections: CHO and SW480 human colon carcinoma cells were cultured in Dulbecco's modified Eagle's medium containing 10% fetal calf serum in an 8% CO2 incubator at 37° C. Transfections were performed using Lipofectamine (Gibco, BRL, USA) according to the manufacturer's instructions. Stably transfected CHO clones were generated by co-transfection with a plasmid encoding the puromycin resistance gene. Two days after transfection, cells were replated in the presence of 10 μg/ml puromycin (Sigma, Holon, Israel). Stable clones were isolated 2 weeks later and tested for the expression of the transgene by Western blot analysis.
Immunoblotting and immunoprecipitation: The following antibodies were used: polyclonal pan-cadherin or monoclonal anti cadherin (CH-19) and polyclonal anti β-catenin antibodies were from Sigma (Holon, Israel). Monoclonal anti β-catenin, 5H10 (from M. Wheelock), anti IL2Rα (from UBI), anti flag (M2, from IBI), anti HA (clone 12CA5, from Boehringer Mannheim, Germany), anti GFP (polyclonal, from Clontech, Palo Alto, Calif.), anti LEF-1 (polyclonal, kindly provided by Dr. R. Grosschedl). […]

Another test has as its system SW480 cells. As to the kind of experiment: Immunofluorescence localization in SW480 cells (Example 1). The class given is cell-based, human. The note with it: transfected SW480 cells, FIG. 6B. From the text: Immunofluorescence microscopy: Cells cultured on glass coverslips were fixed with 3% paraformaldehyde in phosphate-buffered saline (PBS) and permeabilized with 0.5% Triton X-100. CHO cells were immunofluorescently labeled as described (Levenberg S. et al. (1998) Long-range and selective autoregulation of cell-cell and cell-matrix adhesions by cadherin or integrin ligands. J. Cell Sci. 111:347-357). Nuclei were visualized using DAPI and the fluorescence was examined using a Zeiss Axiophot microscope and a x100/1.3 Planapochromat objective.

B1: N-cadherin tail: Cytoplasmic domain of chicken N-cadherin tagged with a Flag epitope (protein)
chain: MKRRDKERQAKQLLIDPEDDVRDNILKYDEEGGGEEDQDYDLSQLQQPDTVEPDAIKPVGIRRLDERPIHAEPQYPVRSAAPHPGDIGDFINEGLKAADNDPTAPPYDSLLVFDYEGSGSTAGSLSSLNSSSSGGEQDYDYLNDWGPRFKKLADMYGGGDD
modifications: left off: small tags and cut ends
For B1, the “effect on β-catenin levels” value with β-catenin is “increase in β-catenin levels”. Besides, the “subcellular localization of β-catenin” value in the test with SW480 cells is “colocalized with β-catenin in the nucleus”.
